The text below walks through data of PMC9242541, “Importance of Rare DPYD Genetic Polymorphisms for 5-Fluorouracil Therapy in the Japanese Population” (Frontiers in Pharmacology, 2022).

Changes are numbered by the printed parent chain.

The term stoichiometry N denotes the number of molecules, sites or subunits per partner or assembly.

This data set deals with the molecule itself. As to the kind of experiment: native gel or EMSA; blue native PAGE (Tris-glycine buffer, 5%-20% polyacrylamide gels), 9 μg of the soluble fraction of transfected 293FT cells per lane, immunoblot with polyclonal anti-human DPD antibody; monomer to dimer.

B1: DPD variant A191V (enzyme, human, UniProt Q12882 4-1025, looked up)
chain: VLSKDSADIESILALNPRTQTHATLCSTSAKKLDKKHWKRNPDKNCFNCEKLENNFDDIKHTTLGERGALREAMRCLKCADAPCQKSCPTNLDIKSFITSIANKNYYGAAKMIFSDNPLGLTCGMVCPTSDLCVGGCNLYATEEGPINIGGLQQFATEVFKAMSIPQIRNPSLPPPEKMSEAYSAKIVLFGAGPASISCASFLARLGYSDITIFEKQEYVGGLSTSEIPQFRLPYDVVNFEIELMKDLGVKIICGKSLSVNEMTLSTLKEKGYKAAFIGIGLPEPNKDAIFQGLTQDQGFYTSKDFLPLVAKGSKAGMCACHSPLPSIRGVVIVLGAGDTAFDCATSALRCGARRVFIVFRKGFVNIRAVPEEMELAKEEKCEFLPFLSPRKVIVKGGRIVAMQFVRTEQDETGKWNEDEDQMVHLKADVVISAFGSVLSDPKVKEALSPIKFNRWGLPEVDPETMQTSEAWVFAGGDVVGLANTTVESVNDGKQASWYIHKYVQSQYGASVSAKPELPLFYTPIDLVDISVEMAGLKFINPFGLASATPATSTSMIRRAFEAGWGFALTKTFSLDKDIVTNVSPRIIRGTTSGPMYGPGQSSFLNIELISEKTAAYWCQSVTELKADFPDNIVIASIMCSYNKNDWTELAKKSEDSGADALELNLSCPHGMGERGMGLACGQDPELVRNICRWVRQAVQIPFFAKLTPNVTDIVSIARAAKEGGANGVTATNTVSGLMGLKSDGTPWPAVGIAKRTTYGGVSGTAIRPIALRAVTSIARALPGFPILATGGIDSAESGLQFLHSGASVLQVCSAIQNQDFTVIEDYCTGLKALLYLKSIEELQDWDGQSPATVSHQKGKPVPRIAELMDKKLPSFGPYLEQRKKIIAENKIRLKEQNVAFSPLKRNCFIPKRPIPTIKDVIGKALQYLGTFGELSNVEQVVAMIDEEMCINCGKCYMTCNDSGYQAIQFDPETHLPTITDTCTGCTLCLSVCPIVDCIKMVSRTTPYEPKRGVPLSVNPVC
notes: dihydropyrimidine dehydrogenase (DPD), human, DPYD cDNA with a variant found in Japanese individuals; made by site-directed mutagenesis of the wild-type construct; also called 572C > T; source: 293FT cells, transfected (pcDNA3.4), soluble fraction
For the protein B1, the “stoichiometry N” value was found to be 2.

B2: DPD variant H807R (enzyme, human, UniProt Q12882 4-1025, looked up)
chain: B1 chain with V188A, H804R
notes: dihydropyrimidine dehydrogenase (DPD), human, DPYD cDNA with a variant found in Japanese individuals; made by site-directed mutagenesis of the wild-type construct; source: 293FT cells, transfected (pcDNA3.4), soluble fraction
B2: the “stoichiometry N” value was 2.

B3: DPD variant R886H (enzyme, human, UniProt Q12882 4-1025, looked up)
chain: B1 chain with V188A, R883H
notes: dihydropyrimidine dehydrogenase (DPD), human, DPYD cDNA with a variant found in Japanese individuals; made by site-directed mutagenesis of the wild-type construct; also called 2657G > A (*9B); source: 293FT cells, transfected (pcDNA3.4), soluble fraction
As to B3, the “stoichiometry N” value was determined as 2.

B4: DPD variant I560V (enzyme, human, UniProt Q12882 4-1025, looked up)
chain: B1 chain with V188A, I557V
notes: dihydropyrimidine dehydrogenase (DPD), human, DPYD cDNA with a variant found in Japanese individuals; made by site-directed mutagenesis of the wild-type construct; also called 1678A > G; source: 293FT cells, transfected (pcDNA3.4), soluble fraction
For B4, the “stoichiometry N” value is 2.

B5: DPD variant T990I (enzyme, human, UniProt Q12882 4-1025, looked up)
chain: B1 chain with V188A, T987I
notes: dihydropyrimidine dehydrogenase (DPD), human, DPYD cDNA with a variant found in Japanese individuals; made by site-directed mutagenesis of the wild-type construct; also called 2969C > T; source: 293FT cells, transfected (pcDNA3.4), soluble fraction
As for B5, the “stoichiometry N” value is 2.

B6: DPD variant S175L (enzyme, human, UniProt Q12882 4-1025, looked up)
chain: B1 chain with S172L, V188A
notes: dihydropyrimidine dehydrogenase (DPD), human, DPYD cDNA with a variant found in Japanese individuals; made by site-directed mutagenesis of the wild-type construct; also called 524C > T; source: 293FT cells, transfected (pcDNA3.4), soluble fraction
For the protein B6, the “stoichiometry N” value amounted to 2.

B7: DPD variant V515I (enzyme, human, UniProt Q12882 4-1025, looked up)
chain: B1 chain with V188A, V512I
notes: dihydropyrimidine dehydrogenase (DPD), human, DPYD cDNA with a variant found in Japanese individuals; made by site-directed mutagenesis of the wild-type construct; also called 1543G > A; source: 293FT cells, transfected (pcDNA3.4), soluble fraction
On to B7, for which the “stoichiometry N” value is 2.

B8: DPD variant V335M (enzyme, human, UniProt Q12882 4-1025, looked up)
chain: B1 chain with V188A, V332M
notes: dihydropyrimidine dehydrogenase (DPD), human, DPYD cDNA with a variant found in Japanese individuals; made by site-directed mutagenesis of the wild-type construct; also called 1003G > A; source: 293FT cells, transfected (pcDNA3.4), soluble fraction
In the case of B8, the “stoichiometry N” value turned out to be 2.

B9: DPD variant C29R (enzyme, human, UniProt Q12882 4-1025, looked up)
chain: B1 chain with C26R, V188A
notes: dihydropyrimidine dehydrogenase (DPD), human, DPYD cDNA with a variant found in Japanese individuals; made by site-directed mutagenesis of the wild-type construct; also called 85T > C (*9A, *9B); source: 293FT cells, transfected (pcDNA3.4), soluble fraction
Regarding B9, the “stoichiometry N” value came to 2.

B10: DPD variant D291N (enzyme, human, UniProt Q12882 4-1025, looked up)
chain: B1 chain with V188A, D288N
notes: dihydropyrimidine dehydrogenase (DPD), human, DPYD cDNA with a variant found in Japanese individuals; made by site-directed mutagenesis of the wild-type construct; also called 871G > A; source: 293FT cells, transfected (pcDNA3.4), soluble fraction
For the protein B10, the “stoichiometry N” value amounted to 2.

B11: DPD variant V732I (enzyme, human, UniProt Q12882 4-1025, looked up)
chain: B1 chain with V188A, V729I
notes: dihydropyrimidine dehydrogenase (DPD), human, DPYD cDNA with a variant found in Japanese individuals; made by site-directed mutagenesis of the wild-type construct; also called 2194G > A (*6); source: 293FT cells, transfected (pcDNA3.4), soluble fraction
Take B11: the “stoichiometry N” value was 2.

B12: DPD variant F524L (enzyme, human, UniProt Q12882 4-1025, looked up)
chain: B1 chain with V188A, F521L
notes: dihydropyrimidine dehydrogenase (DPD), human, DPYD cDNA with a variant found in Japanese individuals; made by site-directed mutagenesis of the wild-type construct; also called 1572T > G; source: 293FT cells, transfected (pcDNA3.4), soluble fraction
In the case of B12, the “stoichiometry N” value is 2.

B13: DPD risk variant D949V (enzyme, human, UniProt Q12882 4-1025, looked up)
chain: B1 chain with V188A, D946V
notes: dihydropyrimidine dehydrogenase (DPD), human, DPYD cDNA with a risk variant reported in Caucasians; made by site-directed mutagenesis of the wild-type construct; also called c.2846A>T; 2846A > T; source: 293FT cells, transfected (pcDNA3.4), soluble fraction
Turning to B13, the “stoichiometry N” value came out at 2.

B14: DPD variant G366A (enzyme, human, UniProt Q12882 4-1025, looked up)
chain: B1 chain with V188A, G363A
notes: dihydropyrimidine dehydrogenase (DPD), human, DPYD cDNA with a variant found in Japanese individuals; made by site-directed mutagenesis of the wild-type construct; also called 1097G > C; source: 293FT cells, transfected (pcDNA3.4), soluble fraction
As to B14, the “stoichiometry N” value is 2.

B15: DPD variant C354Y (enzyme, human, UniProt Q12882 4-1025, looked up)
chain: B1 chain with V188A, C351Y
notes: dihydropyrimidine dehydrogenase (DPD), human, DPYD cDNA with a variant found in Japanese individuals; made by site-directed mutagenesis of the wild-type construct; also called 1061G > A; source: 293FT cells, transfected (pcDNA3.4), soluble fraction
In the case of B15, the “stoichiometry N” value came to 2.

B16: DPD variant R353C (enzyme, human, UniProt Q12882 4-1025, looked up)
chain: B1 chain with V188A, R350C
notes: dihydropyrimidine dehydrogenase (DPD), human, DPYD cDNA with a variant found in Japanese individuals; made by site-directed mutagenesis of the wild-type construct; expression after SDS-PAGE was below the lower limit of quantification; also called 1057C > T; source: 293FT cells, transfected (pcDNA3.4), soluble fraction
In the case of B16, the “stoichiometry N” value is 2.

B17: DPD variant M321I (enzyme, human, UniProt Q12882 4-1025, looked up)
chain: B1 chain with V188A, M318I
notes: dihydropyrimidine dehydrogenase (DPD), human, DPYD cDNA with a variant found in Japanese individuals; made by site-directed mutagenesis of the wild-type construct; also called 963G > A; source: 293FT cells, transfected (pcDNA3.4), soluble fraction
Consider B17, for which the “stoichiometry N” value came to 2.

B18: DPD variant T298M (enzyme, human, UniProt Q12882 4-1025, looked up)
chain: B1 chain with V188A, T295M
notes: dihydropyrimidine dehydrogenase (DPD), human, DPYD cDNA with a variant found in Japanese individuals; made by site-directed mutagenesis of the wild-type construct; also called 893C > T; source: 293FT cells, transfected (pcDNA3.4), soluble fraction
Turning to B18, the “stoichiometry N” value is 2.

B19: DPD variant I543V (enzyme, human, UniProt Q12882 4-1025, looked up)
chain: B1 chain with V188A, I540V
notes: dihydropyrimidine dehydrogenase (DPD), human, DPYD cDNA with a variant found in Japanese individuals; made by site-directed mutagenesis of the wild-type construct; also called 1627A > G (*5); source: 293FT cells, transfected (pcDNA3.4), soluble fraction
On to B19, for which the “stoichiometry N” value was determined as 2.

B20: DPD variant N893S (enzyme, human, UniProt Q12882 4-1025, looked up)
chain: B1 chain with V188A, N890S
notes: dihydropyrimidine dehydrogenase (DPD), human, DPYD cDNA with a variant found in Japanese individuals; made by site-directed mutagenesis of the wild-type construct; also called 2678A > G; source: 293FT cells, transfected (pcDNA3.4), soluble fraction
B20: the “stoichiometry N” value amounted to 2.

B21: DPD variant V434L (enzyme, human, UniProt Q12882 4-1025, looked up)
chain: B1 chain with V188A, V431L
notes: dihydropyrimidine dehydrogenase (DPD), human, DPYD cDNA with a variant found in Japanese individuals; made by site-directed mutagenesis of the wild-type construct; also called 1300G > C; source: 293FT cells, transfected (pcDNA3.4), soluble fraction
Turning to B21, the “stoichiometry N” value came out at 2.

B22: DPD variant V738L (enzyme, human, UniProt Q12882 4-1025, looked up)
chain: B1 chain with V188A, V735L
notes: dihydropyrimidine dehydrogenase (DPD), human, DPYD cDNA with a variant found in Japanese individuals; made by site-directed mutagenesis of the wild-type construct; also called 2212G > C; source: 293FT cells, transfected (pcDNA3.4), soluble fraction
In the case of B22, the “stoichiometry N” value was determined as 2.
